Data reported in the DeepSol protein solubility set.

Experiment: soluble on expression in E. coli; label from the status in PepcDB or PDB records

Q: For “MAHHHHHHSLSSSLANRNIYTVSRLNSEVRLLLENEMGIVWLVGEISNFSAPVSGHWYLTLKDSQAQVKCAMFKGNNRLVNFKPQNGQQVLVKARLSLYEPRGDYQIILESMQPEGDGRLQQQFEQLKMQLAAEGLFAQTRKKPLPENPRCVGIITSRTGAALHDILHVLKRRDPNLPVVIYPTLVQGEEAAIQIAQAIGRANTRAECDVLIVGRGGGSLEDLWCFNHEIVARTIAASEIPIISAVGHEIDVTIADFVADVRAPTPSAAAELVSRDHRHKQQALHQWQAKLASTMRHYLAQQETQFARLQHKLDKQHPQARLERQQQQLDELSLRLEQKMQQRLATQQQRWDRLSHKIELHSPIHLIRQQRFNLIQQEQRINQSIQRYLIQSRHQLALLSEKLDAVSPLATLARGYSVTRTTQGELVRQSAQVKPGDTLVTQLMDGEILSTVNSREG”, which “soluble on expression in E. coli” value is on record?
A: not soluble

Q: For “MSEMSVIIEFSIVPMGEVSISKYVAEIIKLVRDRGVKYQLTPMGTILEVNSIEEGLSIIRDAHELMFKLGSKRVLTTIRIDERRDKARTMEDKVKSVMEKVESVRE”, which “soluble on expression in E. coli” value is on record?
A: soluble

Q: With “MCFRIADGTFFGWEGCFFQAGSCPGTCTHVWNYAQTVANLFPRLERNMRETEFLRETDGQGKMNFRAKIQLEGKPWDMYPAVDGQLGSILRVYREWKISGDDDFLKKIWNQVVSALEFSASYWDSNQDCVLDGQQHNTYDIEFYGVNSLGNSIYYAALKAGAEMAEYLGEHERSQKWRSMEQAGCKRMDEMLFNGEYYRQVTDGDIDEYKYQYGEGCLSDQLLGQTLAHLYGLGHLFPEDHVKSAVFAIYKYNFKERMGSHKSLQRGYAYQDEPGLLLCSWPSGGRPKQPFVYSDEVWTGIEYQVAAGLIYEGFLQEGLEIVRAVRSRYDGYKRNPFNEVECGNHYARSMASWGVLNALSGLQVDLPHNSVTISPKVNQDCFSSFYSTGTEWGICRQFKDQSGALIQSFEALYHADLEHHHHHH” as the sequence, how does the “soluble on expression in E. coli” value read?
A: not soluble

Q: With “MKDPLLNSLIYVSRYYGLANSPEALVNGLPLSDGKLTPFLLPRAAERAGLVAKENRAELEKISSLILPAILVLKGGDSCVLNSINMETREAEVTTLESGMVPISIPLEDLLEQYTGRYFLVKKQFR” as the sequence, how does the “soluble on expression in E. coli” value read?
A: soluble

Q: Which “soluble on expression in E. coli” value does the source give for “MGSDKIHHHHHHMSISQMQVFNKYFMPAIIETLGQQIQKFNAASRGAIMLTTAGFEGDFLQESFYQAIHGARRRVDRYAANGSASPTDLTQLKHSSVKVAGGFGPIRYEPSQMTWLEKPTAEGIEVASRHFAEALLQDQLNTAIAALVAAISNQALATVNVSAKTGLNYSVLNDAHAKFGDSSGLIVANVMSGQVYHKLIGQNLVNAQQLFEYGAVTVVDILGKTVVVTDAPALYATGTPNLQKVLGLVAGAATVSDGGDLITNIETSNGKERIETTFQADYTFGLGLKGYTWDEATGGKSPTDAELATGTNWDKVATDIKHTAGVIAIGDASK” here?
A: not soluble

Q: Which “soluble on expression in E. coli” value does the source give for “MIITEQNMPEEKLQTLSLQVINGSELESGRAARCLFTQQGNVGHAPECHWSVQDRQQSIPAQAFTVILHDGTFCLRPQTAQLWLNQAKVTATSDLIQLRQGDEIQIGRLMVRVHLNRGDIPHYDEEMATPETIVTNRDMLTDTLLSTEGAPHYPGMTHRHQLADTVVNGFSADPLQALQSESLITTGDPLSGIAAVRPSAPLSDPASNGGINTPFMDLPPIYASPGDHNDDISAAEMAQRHLAVTPLLRGLGGSLTVSNSDDADDFLEEAGRTLQAAIKGLLDLQQQRNSLSDKHLRPLEDNPLRLNMDYATALDVMFAEGKSPVHLAAPAAVSESLRNVRHHEEANRAAIVESLRVLLDAFSPQNLLRRFVQYRRSHELRQPLDDAGAWQMYSHYYEELASDRQQGFEMLFNEVYAQVYDRVLREKQREPEA” here?
A: soluble

Q: Which “soluble on expression in E. coli” value does the source give for “GPGSPKLVRINTNEKGITNVQLARAPVNSMSLELFQELNQWMLWLGSNEETKAVIISSAIPTVFSAGLDLVEVHNPKPDRVAVFWQSFQEMWLILNSFPKPIIAAITGNSPAAGCIIAMGCDYRVMARGPKGNTNNNRLYRIGLNETKLGLVAPPWVMPAYAYLLGSRQAERMLQLGETPVADDARNLGLIDEVAADEERAIEVAYQQAERFLSVPQQSRWMARDMMRREYLQMLASDEERNYDTEFFTQFVQSPEVQKNLESYLERLKSCSRK” here?
A: soluble

Q: For “MLWLALGPFPAMENQVLVIRIKIPNSGAVDWTVHSGPQLLFRDVLDVIGQVLPEATTTAFEYEDEDGDRITVRSDEEMKAMLSYYYSTVMEQQVNGQLIEPLQIFPRACKPPGERNIHGLKVNTRAGPSQHSSPAVSDSLPSNSLKKSSAELKKILANGQMNEQDIRYRDTLGHGNGGTVYKAYHVPSGKILAVKVILLDITLELQKQIMSELEILYKCDSSYIIGFYGAFFVENRISICTEFMDGGSLDVYRKMPEHVLGRIAVAVVKGLTYLWSLKILHRDVKPSNMLVNTRGQVKLCDFGVSTQLVNSIAKTYVGTNAYMAPERISGEQYGIHSDVWSLGISFMELALGRFPYPQIQKNQGSLMPLQLLQCIVDEDSPVLPVGEFSEPFVHFITQCMRKQPKERPAPEELMGHPFIVQFNDGNAAVVSMWVCRALEERRSQQGPP”, which “soluble on expression in E. coli” value is on record?
A: soluble

Q: Which “soluble on expression in E. coli” value does the source give for “MTFQASGTTGITTLTVTEECRVQVGNVTATLARSKLKDDTAIGVIGVTALGCNGLQAALQADPDNYDATNLYMTSRNHDKLNVKLKATDGSSWTYGNGVFYKTEGGNWGGHVGISVDGNQTDKPTGEYTLNLTGGYWTNDNKQTFQASGTTGITTLTLEHHHHHH” here?
A: soluble

Q: For “MYSCTSPSGIKVSLSTPEIWEEFYPKTEMIVTRNRGRVIFPHLDYIIKGLDPGSLYSIYIHLERVDGIKYKFDAGEWKEFAKGDPILPIQYKEHPRGKRTGAEWMSEPVSFAHIKITNNPEIKDQKVILVQSMHKHIPVVTVKQVRHYKTGYQEDFSGEQFRLEATEFMVVTAYQNEILKNLKVHHNKFASGFRSNGKRRLSSDSENSENSPPKRSKLVTPPTISPQIDLPQQTPYYFNQNFVAPQNYQPQFASAQNYNFEVQNNAQLAWNMYYQKQYEFWWQQQQMMMPGQPQELKNEFQSL”, which “soluble on expression in E. coli” value is on record?
A: not soluble

Q: With “MSLTGETLFGTIELVGYRDNYGQIKIPRRPLNPGEKVYGVDYEFLSKFYKFDENTSINIGNLIGYDKGSNIVPVYLDVNKLVTEHLAVLAMTGSGKSYTVGRIIERLVAEMNGTVVVFDVHGEYGKAFEKGEIHFNNNLDFIEDEREKKSIQRIQENLIKMQNAGGGIKVYTPQIDSFDYKYSGKNHHLALQFDRFDMDDLSSILPGLTEAQERVLDVAIRYWKAKYNHPPRDIQDLTYLLSDEQGLEELKNWDNLTEGEAKALNNRSAAVASMKLTRVINEAKSFYTRAIGEPTDIYDMIGEKGNSVGRLVIIDLQGLSDDAKQIITALISSEIMRAASDKKRQIRPCFLVYEEGHNFAPAGIPSISKKIIKKIAAEGRKFGVGFAIISQRPSKLDPDVTSQCNTIITMRLKNPDDQRFIAKTSDMFSSSDIEELPSLSTGEALINGRSIPAPLLVKVGTKALIHGGESPEVIKEWGVFNGEGHHHHHH” as the sequence, how does the “soluble on expression in E. coli” value read?
A: not soluble

Q: For “MDKPVDKPAKGKRPAAAGRGSKPRSASAERVRRHREKMKAMGLKPVTIWVPEDYNSPEYKAEIRRECELINADPESEIVLEGMWELADFGDWKA”, which “soluble on expression in E. coli” value is on record?
A: not soluble

Q: Which “soluble on expression in E. coli” value does the source give for “GAMQGEVSKAASADSTTEGTPADGFTVLSTKSLFLGQKLQVVQADIASIDSDAVVHPTNTDFYIGGEVGNTLEKKGGKEFVEAVLELRKKNGPLEVAGAAVSAGHGLPAKFVIHCNSPVWGADKCEELLEKTVKNCLALADDKKLKSIAFPSIGSGRNGFPKQTAAQLILKAISSYFVSTMSSSIKTVYFVLFDSESIGIYVQEMAKLDAN” here?
A: soluble

Q: Which “soluble on expression in E. coli” value does the source give for “MTDHSNTRVVVGMSGGVDSSVVALLLKQQGYDVVGVFMKNWDDTDENGVCTATEDYKDVAKVADKIGIPYYSINFEKEYWDRVFTYFLDEYKKGRTPNPDVICNKEIKFKAFLDYAMDLGADYIATGHYARLQHDEDGTMHLLRGVDSNKDQTYFLSQLDSKTLQKVMFPLGEMVKPDVRKLALNAGLATAKKKDSVGICFIGEKNFKEFLGHYLPATPGKMMTFDGQVKGEHAGLMYYTIGQRRGLGIGGDGEDNEPWFVVGKDLKKNILYVGKGYHNPHLYATHLKASDLHFVTDEDLGNDFHVTAKFRYRQKDSGVTVHFNDDHTEVTVTFDDPVRAITPGQAVVFYNGEECLGSGMIDAAYNDERVLQYVLEHHHHHH” here?
A: not soluble

Q: With “MNRFILSAFLLVAIFAISDAAVAQQQVKDGEKVEIDAFKGAKAIKRTVAGGDQIFHLDGDNKGSFVDAKGKKIESTNYEANNGILIIKKFTKADVGTYSEHPAKNTETKHADGSISAVPGLTLDISLQ” as the sequence, how does the “soluble on expression in E. coli” value read?
A: soluble

Q: With “ILPQPDVRVNQVGYLPEGKKVATVVCNSTQPVKWQLKNAAGVVVLEGYTEPKGLDKDSQDYVHWLDFSDFATEGIGYYFELPTVNSPTNYSHPFDIRKDIYTQMKYDALAFFYHKRSGIPIEMPYAGGEQWTRPAGHIGIEPNKGDTNVPTWPQDDEYAGIPQKNYTKDVTGGWYDAGDHGKYVVNGGIAVWTLMNMYERAKIRGLDNWGPYRDGGMNIPEQNNGYPDILDEARWEIEFFKKMQVTEKEDPSIAGMVHHKIHDFRWTALGMLPHEDPQPRYLRPVSTAATLNFAATLAQSARLWKDYDPTFAADCLEKAEIAWQAALKHPDIYAEYTPGSGGPGGGPYNDDYVGDEFYWAACELYVTTGKDEYKNYLMNSPHYLEMPAKMGENGGANGEDNGLWGCFTWGTTQGLGTITLALVENGLPATDIQKARNNIAKAADRWLENIEEQGYRLPIKQAEDERGGYPWGSNSFILNQMIVMGYAYDFTGDSKYLDGMFDGISYLLGRNAMDQSYVTGYGERPLQNPHDRFWTPQTSKRFPAPPPGIISGGPNSRFEDPTINAAVKKDTPPQKCFIDHTDSWSTNEITVNWNAPFAWVTAYLDQYTD” as the sequence, how does the “soluble on expression in E. coli” value read?
A: soluble

Q: For “MSPSESGELSIIQELSQRIVEAQRQIRILDSIKWDESVKQEFFKFKGKKLPSIDKAYYDGKPLPFKVKDKQEEFRIILRDAQNQLGQYSTVTRLIRRQCEEYSRAAQMLSLRGTPSFSEMAMELYGSPDDVFYVGGPRMCEMGSLLFDVLKSLQVQLQSQADIKRYTPIQAQEILQERLGKFFDKHPGRVSVMVSDDMIADASAGADSIKLSQNAMFSDRDLRYLEVHEGWVHVGTTLNGALQPNCFFLSKGSPSSSVIQEGLAVITEVVTFSSYPGRMLKITNRVIALDKVTQGADFIDIYRYFLECGLSEEDSYNQSVRIFRGSTPTGGPFTKDLSYAKGFVLIYNYIRFAIGQKRVDTIPLLFTGKLVLDDLPLLGELKEREILTDPVYLPPPFQDLAALSAWMSFSLYLNQFDLNEIQKNFRFLLVLEHHHHHH”, which “soluble on expression in E. coli” value is on record?
A: not soluble

Q: For “SMSNDKTGKSLEQENSERDVEIRDRNYFRKLSLFDDTVIAGAEMIGTSYDVFGKYCNVGSCMNSLFDERKINASEDNFKKVTILGKTLKVPYYIDCYSVGDLKYTNASGESIESYQSNISSKSRIKGNYLFFSASLKVDFDTDSLTDFENAFSRIQYTYDLYILKSSAEALKEFLKESVKTALDKADTEEDMNDLFNTWGSHFLSGVVMGGCAQYSSSTNKYTSNLTNSFDVVAAASFAGFIGLSARTGNSFMEDIKKFRSASNIKTHAIGGDLSRFDPFGGATSADQPSAEEIAAAKKAFEDWKASVPNAPELVNFADSNPLTGIWELCSDRTQKAKLKKHFETVWAPAESAKRRVHADYIDEIIIGINNTNTPPEGYIGLKSTKDENLNSKGNICLFMHKAKYDPNIDNKDCITELKFITVRDKSPEGDWVKIPQDIYISPNQYLYLCYLPAKYSAEKAIKDIQLLCSSCGSSMILPYGYNDVLDERGERANATEDDNVHYLIYSAGWK”, which “soluble on expression in E. coli” value is on record?
A: soluble

Q: For “MGSDKIHHHHHHMLWSMTDGATPATPPTAAPEERFPHVNPLVYRFVVDVTFLPVLLTGMHIDVHGREHVPPPGTPLVVAANHQSALDPFLIARALPPGRYLQFMAKRELFVPVIGDIIRAGGSFPVDRESNDVGAIRTSLRILKAGGTVGIFPQGTRGGQELHGGAALIAARGRAPILPAGISHDGKRWVVRFGEPLPARGGIKANTEELGRRLQVLAQPVGRHL”, which “soluble on expression in E. coli” value is on record?
A: not soluble
